Drawing on US20250171562A1, this text covers Max effect/effect 1 µM and EC50 for eight molecules.

To fix the notation:
B1: CIgG4F2A1(G4S)2 (Fc fusion)
chain 1: GPPCPPCPAPEFLGGPSVFLFPPKPKDTLMISRTPEVTCVVVDVSQEDPEVQFNWYVDGVEVHNAKTKPREEQFNSTYRVVSVLTVLHQDWLNGKEYKCKVSNKGLPSSIEKTISKAKGQPREPQVYTLPPCQEEMTKNQVSLWCLVKGFYPSDIAVEWESNGQPENNYKTTPPVLDSDGSFFLYSRLTVDKSRWQEGNVFSCSVMHEALHNHYTQKSLSLSLGKGGGGSGGGGSDVQLQESGGGLVQAGGSLKLSCAASGGSLSRYDMGWFRQAPGKEREFVARISWSGDTKYYADAVEGRFAISRDNAQNTVYLQMNSLKPEDTAVYYCAVALYGNRGYYDVNTYSYWGQGTRVTVS
chain 2: GPPCPPCPAPEFLGGPSVFLFPPKPKDTLMISRTPEVTCVVVDVSQEDPEVQFNWYVDGVEVHNAKTKPREEQFNSTYRVVSVLTVLHQDWLNGKEYKCKVSNKGLPSSIEKTISKAKGQPREPQVCTLPPSQEEMTKNQVSLSCAVKGFYPSDIAVEWESNGQPENNYKTTPPVLDSDGSFFLVSRLTVDKSRWQEGNVFSCSVMHEALHNHYTQKSLSLSLGKGGGGSGGGGSEVQLLESGGGLVQPGGSLRLSCAASGFTFGNYDMAWVRQAPGKRPEWVSSIDTGGDITHYADSVKGRFTISRDNAKNTLYLQMNSLRPEDTAVYWCATDEEYALGPNEFDYYGQGTLVTVSS
B2: CIgG4F2A1(G4S)3 (Fc fusion)
chain 1: GPPCPPCPAPEFLGGPSVFLFPPKPKDTLMISRTPEVTCVVVDVSQEDPEVQFNWYVDGVEVHNAKTKPREEQFNSTYRVVSVLTVLHQDWLNGKEYKCKVSNKGLPSSIEKTISKAKGQPREPQVYTLPPCQEEMTKNQVSLWCLVKGFYPSDIAVEWESNGQPENNYKTTPPVLDSDGSFFLYSRLTVDKSRWQEGNVFSCSVMHEALHNHYTQKSLSLSLGKGGGGSGGGGSGGGGSDVQLQESGGGLVQAGGSLKLSCAASGGSLSRYDMGWFRQAPGKEREFVARISWSGDTKYYADAVEGRFAISRDNAQNTVYLQMNSLKPEDTAVYYCAVALYGNRGYYDVNTYSYWGQGTRVTVS
chain 2: GPPCPPCPAPEFLGGPSVFLFPPKPKDTLMISRTPEVTCVVVDVSQEDPEVQFNWYVDGVEVHNAKTKPREEQFNSTYRVVSVLTVLHQDWLNGKEYKCKVSNKGLPSSIEKTISKAKGQPREPQVCTLPPSQEEMTKNQVSLSCAVKGFYPSDIAVEWESNGQPENNYKTTPPVLDSDGSFFLVSRLTVDKSRWQEGNVFSCSVMHEALHNHYTQKSLSLSLGKGGGGSGGGGSGGGGSEVQLLESGGGLVQPGGSLRLSCAASGFTFGNYDMAWVRQAPGKRPEWVSSIDTGGDITHYADSVKGRFTISRDNAKNTLYLQMNSLRPEDTAVYWCATDEEYALGPNEFDYYGQGTLVTVSS
B3: NIgG4F3A1(G4S)2 (Fc fusion)
chain 1: DVQLQESGGGLVQAGGSLKLSCAASRGSLSRWDVAWFRQAPGKERSFVTRISWSGTTSYYADAVKGRFAISRDNAKNTVYLQMNSLKPEDTAVYYCAVALYGNRGYYDVNAHSYWGQGTQVTVSGGGGSGGGGSGPPCPPCPAPEFLGGPSVFLFPPKPKDTLMISRTPEVTCVVVDVSQEDPEVQFNWYVDGVEVHNAKTKPREEQFNSTYRVVSVLTVLHQDWLNGKEYKCKVSNKGLPSSIEKTISKAKGQPREPQVYTLPPCQEEMTKNQVSLWCLVKGFYPSDIAVEWESNGQPENNYKTTPPVLDSDGSFFLYSRLTVDKSRWQEGNVFSCSVMHEALHNHYTQKSLSLSLGK
chain 2: EVQLLESGGGLVQPGGSLRLSCAASGFTFGNYDMAWVRQAPGKRPEWVSSIDTGGDITHYADSVKGRFTISRDNAKNTLYLQMNSLRPEDTAVYWCATDEEYALGPNEFDYYGQGTLVTVSSGGGGSGGGGSGPPCPPCPAPEFLGGPSVFLFPPKPKDTLMISRTPEVTCVVVDVSQEDPEVQFNWYVDGVEVHNAKTKPREEQFNSTYRVVSVLTVLHQDWLNGKEYKCKVSNKGLPSSIEKTISKAKGQPREPQVCTLPPSQEEMTKNQVSLSCAVKGFYPSDIAVEWESNGQPENNYKTTPPVLDSDGSFFLVSRLTVDKSRWQEGNVFSCSVMHEALHNHYTQKSLSLSLGK
B4: NIgG4F3A1(RS) (Fc fusion)
chain 1: DVQLQESGGGLVQAGGSLKLSCAASRGSLSRWDVAWFRQAPGKERSFVTRISWSGTTSYYADAVKGRFAISRDNAKNTVYLQMNSLKPEDTAVYYCAVALYGNRGYYDVNAHSYWGQGTQVTVSRSGPPCPPCPAPEFLGGPSVFLFPPKPKDTLMISRTPEVTCVVVDVSQEDPEVQFNWYVDGVEVHNAKTKPREEQFNSTYRVVSVLTVLHQDWLNGKEYKCKVSNKGLPSSIEKTISKAKGQPREPQVYTLPPCQEEMTKNQVSLWCLVKGFYPSDIAVEWESNGQPENNYKTTPPVLDSDGSFFLYSRLTVDKSRWQEGNVFSCSVMHEALHNHYTQKSLSLSLGK
chain 2: EVQLLESGGGLVQPGGSLRLSCAASGFTFGNYDMAWVRQAPGKRPEWVSSIDTGGDITHYADSVKGRFTISRDNAKNTLYLQMNSLRPEDTAVYWCATDEEYALGPNEFDYYGQGTLVTVSSRSGPPCPPCPAPEFLGGPSVFLFPPKPKDTLMISRTPEVTCVVVDVSQEDPEVQFNWYVDGVEVHNAKTKPREEQFNSTYRVVSVLTVLHQDWLNGKEYKCKVSNKGLPSSIEKTISKAKGQPREPQVCTLPPSQEEMTKNQVSLSCAVKGFYPSDIAVEWESNGQPENNYKTTPPVLDSDGSFFLVSRLTVDKSRWQEGNVFSCSVMHEALHNHYTQKSLSLSLGK
B5: NIgG4F3A1(G4S)1 (Fc fusion)
chain 1: DVQLQESGGGLVQAGGSLKLSCAASRGSLSRWDVAWFRQAPGKERSFVTRISWSGTTSYYADAVKGRFAISRDNAKNTVYLQMNSLKPEDTAVYYCAVALYGNRGYYDVNAHSYWGQGTQVTVSGGGGSGPPCPPCPAPEFLGGPSVFLFPPKPKDTLMISRTPEVTCVVVDVSQEDPEVQFNWYVDGVEVHNAKTKPREEQFNSTYRVVSVLTVLHQDWLNGKEYKCKVSNKGLPSSIEKTISKAKGQPREPQVYTLPPCQEEMTKNQVSLWCLVKGFYPSDIAVEWESNGQPENNYKTTPPVLDSDGSFFLYSRLTVDKSRWQEGNVFSCSVMHEALHNHYTQKSLSLSLGK
chain 2: EVQLLESGGGLVQPGGSLRLSCAASGFTFGNYDMAWVRQAPGKRPEWVSSIDTGGDITHYADSVKGRFTISRDNAKNTLYLQMNSLRPEDTAVYWCATDEEYALGPNEFDYYGQGTLVTVSSGGGGSGPPCPPCPAPEFLGGPSVFLFPPKPKDTLMISRTPEVTCVVVDVSQEDPEVQFNWYVDGVEVHNAKTKPREEQFNSTYRVVSVLTVLHQDWLNGKEYKCKVSNKGLPSSIEKTISKAKGQPREPQVCTLPPSQEEMTKNQVSLSCAVKGFYPSDIAVEWESNGQPENNYKTTPPVLDSDGSFFLVSRLTVDKSRWQEGNVFSCSVMHEALHNHYTQKSLSLSLGK
B6: NIgG4F3A1(G4S)3 (Fc fusion)
chain 1: DVQLQESGGGLVQAGGSLKLSCAASRGSLSRWDVAWFRQAPGKERSFVTRISWSGTTSYYADAVKGRFAISRDNAKNTVYLQMNSLKPEDTAVYYCAVALYGNRGYYDVNAHSYWGQGTQVTVSGGGGSGGGGSGGGGSGPPCPPCPAPEFLGGPSVFLFPPKPKDTLMISRTPEVTCVVVDVSQEDPEVQFNWYVDGVEVHNAKTKPREEQFNSTYRVVSVLTVLHQDWLNGKEYKCKVSNKGLPSSIEKTISKAKGQPREPQVYTLPPCQEEMTKNQVSLWCLVKGFYPSDIAVEWESNGQPENNYKTTPPVLDSDGSFFLYSRLTVDKSRWQEGNVFSCSVMHEALHNHYTQKSLSLSLGK
chain 2: EVQLLESGGGLVQPGGSLRLSCAASGFTFGNYDMAWVRQAPGKRPEWVSSIDTGGDITHYADSVKGRFTISRDNAKNTLYLQMNSLRPEDTAVYWCATDEEYALGPNEFDYYGQGTLVTVSSGGGGSGGGGSGGGGSGPPCPPCPAPEFLGGPSVFLFPPKPKDTLMISRTPEVTCVVVDVSQEDPEVQFNWYVDGVEVHNAKTKPREEQFNSTYRVVSVLTVLHQDWLNGKEYKCKVSNKGLPSSIEKTISKAKGQPREPQVCTLPPSQEEMTKNQVSLSCAVKGFYPSDIAVEWESNGQPENNYKTTPPVLDSDGSFFLVSRLTVDKSRWQEGNVFSCSVMHEALHNHYTQKSLSLSLGK
B7: CIgG4F3A1(RS) (Fc fusion)
chain 1: GPPCPPCPAPEFLGGPSVFLFPPKPKDTLMISRTPEVTCVVVDVSQEDPEVQFNWYVDGVEVHNAKTKPREEQFNSTYRVVSVLTVLHQDWLNGKEYKCKVSNKGLPSSIEKTISKAKGQPREPQVYTLPPCQEEMTKNQVSLWCLVKGFYPSDIAVEWESNGQPENNYKTTPPVLDSDGSFFLYSRLTVDKSRWQEGNVFSCSVMHEALHNHYTQKSLSLSLGKRSDVQLQESGGGLVQAGGSLKLSCAASRGSLSRWDVAWFRQAPGKERSFVTRISWSGTTSYYADAVKGRFAISRDNAKNTVYLQMNSLKPEDTAVYYCAVALYGNRGYYDVNAHSYWGQGTQVTVS
chain 2: GPPCPPCPAPEFLGGPSVFLFPPKPKDTLMISRTPEVTCVVVDVSQEDPEVQFNWYVDGVEVHNAKTKPREEQFNSTYRVVSVLTVLHQDWLNGKEYKCKVSNKGLPSSIEKTISKAKGQPREPQVCTLPPSQEEMTKNQVSLSCAVKGFYPSDIAVEWESNGQPENNYKTTPPVLDSDGSFFLVSRLTVDKSRWQEGNVFSCSVMHEALHNHYTQKSLSLSLGKRSEVQLLESGGGLVQPGGSLRLSCAASGFTFGNYDMAWVRQAPGKRPEWVSSIDTGGDITHYADSVKGRFTISRDNAKNTLYLQMNSLRPEDTAVYWCATDEEYALGPNEFDYYGQGTLVTVSS
B8: CIgG4F2A1(G4S)1 (Fc fusion)
chain 1: GPPCPPCPAPEFLGGPSVFLFPPKPKDTLMISRTPEVTCVVVDVSQEDPEVQFNWYVDGVEVHNAKTKPREEQFNSTYRVVSVLTVLHQDWLNGKEYKCKVSNKGLPSSIEKTISKAKGQPREPQVYTLPPCQEEMTKNQVSLWCLVKGFYPSDIAVEWESNGQPENNYKTTPPVLDSDGSFFLYSRLTVDKSRWQEGNVFSCSVMHEALHNHYTQKSLSLSLGKGGGGSDVQLQESGGGLVQAGGSLKLSCAASGGSLSRYDMGWFRQAPGKEREFVARISWSGDTKYYADAVEGRFAISRDNAQNTVYLQMNSLKPEDTAVYYCAVALYGNRGYYDVNTYSYWGQGTRVTVS
chain 2: GPPCPPCPAPEFLGGPSVFLFPPKPKDTLMISRTPEVTCVVVDVSQEDPEVQFNWYVDGVEVHNAKTKPREEQFNSTYRVVSVLTVLHQDWLNGKEYKCKVSNKGLPSSIEKTISKAKGQPREPQVCTLPPSQEEMTKNQVSLSCAVKGFYPSDIAVEWESNGQPENNYKTTPPVLDSDGSFFLVSRLTVDKSRWQEGNVFSCSVMHEALHNHYTQKSLSLSLGKGGGGSEVQLLESGGGLVQPGGSLRLSCAASGFTFGNYDMAWVRQAPGKRPEWVSSIDTGGDITHYADSVKGRFTISRDNAKNTLYLQMNSLRPEDTAVYWCATDEEYALGPNEFDYYGQGTLVTVSS

Sequence of mixture of three Der p 2 specific recombinant human IgE clones H10, H12, P4E (human) (P01854 other isoform, or with tags, fused parts or gaps): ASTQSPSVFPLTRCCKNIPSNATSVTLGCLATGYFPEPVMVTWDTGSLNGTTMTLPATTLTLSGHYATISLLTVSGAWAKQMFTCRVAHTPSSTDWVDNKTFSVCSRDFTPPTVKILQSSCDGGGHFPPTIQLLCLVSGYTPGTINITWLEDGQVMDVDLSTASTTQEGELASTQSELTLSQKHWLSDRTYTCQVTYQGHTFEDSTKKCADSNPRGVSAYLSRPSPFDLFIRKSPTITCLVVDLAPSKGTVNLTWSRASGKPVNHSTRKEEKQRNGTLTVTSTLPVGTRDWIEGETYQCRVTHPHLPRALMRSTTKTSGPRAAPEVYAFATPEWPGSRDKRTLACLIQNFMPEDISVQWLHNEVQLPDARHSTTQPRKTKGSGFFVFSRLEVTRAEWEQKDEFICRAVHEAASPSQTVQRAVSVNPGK

This experiment addresses mixture of three Der p 2 specific recombinant human IgE clones H10, H12, P4E (human) (UniProt P01854). Kind of experiment: RBL-SX38 IgE displacement, FACS.
In the case of B1, the Max effect/effect 1 µM amounted to 0%. On the same count and under the same terms, as for B2, the figure is 2%. By EC50 is commonly meant the concentration giving half of the maximal effect. As for B3, the half-maximal effective concentration (EC50) amounted to 2 nM and the Max effect/effect 1 µM amounted to 95%. The corresponding values for B4 are 2 nM and 93%. For B5, in that order: 2 nM and 93%. The corresponding values for B6 are 0.9 nM and 94%.

Regarding B7, the Max effect/effect 1 µM amounted to 9%.

Turning to B8, the Max effect/effect 1 µM was determined as 11%.
